In PMC11383374:

Target: the protein biologic (purified DNASE1-Fc enzyme biologic analysed by size-exclusion chromatography with light scattering) (not stated (murine and human isoforms were made)) (UniProt P49183)
Test: SEC-MALS; size-exclusion chromatography with light scattering; two separate concentrations of sample loading; single peak; hydrodynamic radius 5.3 nm

Q: With “the protein biologic (purified DNASE1-Fc enzyme biologic analysed by size-exclusion chromatography with light scattering) (from UniProt P49183 23-284) (Fc fusion)” as the substance, how does the stoichiometry N read?
A: 2
